According to patent US10975167B2, “Method to reduce pulmonary arterial hypertension by administering inhibitors of nicotinamide phosphoribotransferase” (Arizona Board of Regents on Behalf of the University of …, priority 2017, dated 2021):

Experiments:
hPASMCs [1] = test: Transwell migration and wound healing assays; format: cell-based, human; details: rhNAMPT 20 μg/ml
Description: For quantitative data from transwell migration assays (ANOVA P<0.05). 50,000 cells were added into Falcon™ Cell Culture Inserts (Fisher, Cat. #08-771-12) with 8-μm pores in 1 ml of basal medium and 250 μl on the top of the transwell. Cells were then stimulated by vehicle, rhNAMPT (20 μg/ml) with or without FK866 (10 μM) for 48 hrs. Unmigrated cells were then scraped from the top of the filter and the migrated bottom layer of cells were stained by 1% aqueous Crystal Violet solution (Electron Microscopy Sciences, Cat. #RT 26088-10). The transwell bottom was gently separated by a blade and put on a glass slide for imaging.
The migrated cells were counted and quantified. Images were taken by an Olympus BX51Fluorescence Microscope and processed by DPController Software (Oylmpus IMS).
In wound healing assays, approximately 0.5 million human Primary Pulmonary Artery Smooth Muscle Cells (hPASMCs) were seeded to 6-well cell culture plates, a straight line was scratched using a 200-μl pipette tip after cells reached 100% confluence. Three dots were labelled beside each line. […]
Image J software was used to measure the wound line width for all the three spots labeled in each line. Wound closure %={[width (start point)-width (end point)]/width (start point)}×100% was calculated (ANOVA P<0.05).

human lung SMCs = test: Store-operated Ca2+ entry and STIM2/Orai2 expression in human lung SMCs; format: cell-based; details: 48 hr
Description: Recombinant NAMPT protein (CY-E1251) was obtained from MBL Lifescience. Solubilized protein lysates isolated from lung tissues and cells were used to detect NAMPT, STIM2, ORAI2 and actin as previously described. Cells were lysed in a modified radioimmunoprecipitation assay (mRIPA) lysis buffer with a protease and phosphatase inhibitor cocktail (Sigma Aldrich, St. Louis, Mo.), and protein quantification and Western blot analysis were performed according to standard procedures.
Human Primary Pulmonary Artery Smooth Muscle Cells (hPASMCs) from control and PAH patients were obtained and isolated as previously described from Lonza (CC-2581 and CC-2530) were used for cell transfection and proliferation assays.
[Ca2+]cyt was measured in PASMC loaded with fura-2 (4 mM) in a Nikon digital fluorescent imaging system. Cells were loaded with 4 μM fura-2 acetoxymethyl ester (fura-2/AM) for 60 min at 25° C. and [Ca2+]cyt was measured using a ratiometric method at 32° C. Cyclepiazonic acid (CPA, a specific Ca2+-ATPase inhibitor) was used to induce store-operated calcium entry (SOCE).

human lung SMC = test: BrdU proliferation of human lung SMC exposed to recombinant NAMPT; format: cell-based; details: 1, 5, 20 μg/ml
Description: Cell proliferation was determined using either a 5-bromo-2′-deoxyuridine (BrdU) incorporation assay or cell counting. BrdU assays (QIA58, Calbiochem, San Diego, Calif.) were performed in a 96-well format according to manufacturer's instructions, using starting cell densities of 4000 cells/well. For cell counting, cells were trypsinized and resuspended after experimental procedures; densities were counted with a TC10™ automated cell counter (Bio-Rad). FBS or PDGF was used as positive controls.

hPASMCs [2] = test: TUNEL apoptosis assay in hPASMCs; format: cell-based, human; details: H2O2 100 μM + rhNAMPT 20 μg/ml, 24 hrs
Description: hPASMCs were cultured on a coverslip in a 6-well cell culture plate. H2O2 (100 μM, Sigma, Cat. #ab66110) was used as an apoptosis stimulus for hPASMCs.
When cell confluence reached 95%, cells were starved for 3 hrs and stimulated by H2O2, FK866 (10 μM), H2O2+rhNAMPT (20 μg/ml) or H2O2+rhNAMPT (20 μg/ml) with FK866 (10 μM) for 24 hrs. Cell apoptosis was examined using an in situ BrdU-Red DNA fragmentation (TUNEL) kit. The cells on the coverslips were examined using a Nikon Eclipse E800 fluorescence microscope, and the images were processed by MetaMorph software (Molecular Devices, Inc.). Approximately ten images were taken from each condition, and over 500 cells were counted according to DAPI staining.

B1: rNAMPT: Recombinant NAMPT protein (CY-E1251) from MBL (protein)
chain: MNPAAEAEFNILLATDSYKVTHYKQYPPNTSKVYSYFECREKKTENSKLRKVKYEETVFYGLQYILNKYLKGKVVTKEKIQEAKDVYKEHFQDDVFNEKGWNYILEKYDGHLPIEIKAVPEGFVIPRGNVLFTVENTDPECYWLTNWIETILVQSWYPITVATNSREQKKILAKYLLETSGNLDGLEYKLHDFGYRGVSSQETAGIGASAHLVNFKGTDTVAGLALIKKYYGTKDPVPGYSVPAAEHSTITAWGKDHEKDAFEHIVTQFSSVPVSVVSDSYDIYNACEKIWGEDLRHLIVSRSTQAPLIIRPDSGNPLDTVLKVLEILGKKFPVTENSKGYKLLPPYLRVIQGDGVDINTLQEIVEGMKQKMWSIENIAFGSGGGLLQKLTRDLLNCSFKCSYVVTNGLGINVFKDPVADPNKRSKKGRLSLHRTPAGNFVTLEEGKGDLEEYGQDLLHTVFKNGKVTKSYSFDEIRKNAQLNIELEAAHH
human PASMC migration (hPASMCs [1]): promotes | cyclopiazonic acid (CPA)-mediated store-operated Ca2+ entry (SOCE) (human lung SMCs; 20 μg/ml): augments | expression of Orai2 (human lung SMCs): increases | expression of STIM2 (human lung SMCs): increases | human lung SMC proliferation (human lung SMC): dose-dependently stimulating | hPASMC apoptosis (TUNEL positive cells) (hPASMCs [2]): inhibits
